Article PMC4352763
Each block holds one substance with its values, some of them ahead of it.

Assays:
[1] = molecular target: UCH-L5 (full-length, wild type) (human)
[2] = molecular target: UCH-L5_(M148A/F149A) (human)
Ub-LysGlyTAMRA = Ub-LysGlyTAMRA (UniProt P0CG48); assay: fluorescence polarisation
[3] = molecular target: RPN13 DEUBAD domain (aa 265-388) (human) (UniProt Q16186); assay: ITC

Sequence of UniProt P0CG48 (P0CG48 whole entry, looked up, the tested form may be a part): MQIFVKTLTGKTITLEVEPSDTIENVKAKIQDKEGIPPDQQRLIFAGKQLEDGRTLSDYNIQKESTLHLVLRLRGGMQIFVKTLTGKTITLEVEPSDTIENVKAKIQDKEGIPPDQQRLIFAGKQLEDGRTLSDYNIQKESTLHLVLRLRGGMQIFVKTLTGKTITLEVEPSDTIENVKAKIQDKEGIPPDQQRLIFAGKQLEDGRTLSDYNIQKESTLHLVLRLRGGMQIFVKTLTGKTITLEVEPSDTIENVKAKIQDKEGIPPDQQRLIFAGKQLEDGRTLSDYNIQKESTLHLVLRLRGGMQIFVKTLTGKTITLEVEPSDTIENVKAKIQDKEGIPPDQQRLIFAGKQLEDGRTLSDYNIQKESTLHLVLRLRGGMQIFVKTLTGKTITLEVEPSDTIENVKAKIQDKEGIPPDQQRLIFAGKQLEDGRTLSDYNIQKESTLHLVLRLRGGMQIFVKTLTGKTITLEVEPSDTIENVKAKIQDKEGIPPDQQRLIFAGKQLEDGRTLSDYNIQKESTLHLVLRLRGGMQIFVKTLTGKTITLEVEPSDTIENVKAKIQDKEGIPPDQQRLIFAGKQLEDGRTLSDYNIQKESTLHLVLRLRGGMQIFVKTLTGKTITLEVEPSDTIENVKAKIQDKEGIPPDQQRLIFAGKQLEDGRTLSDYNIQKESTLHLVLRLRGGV

- activation of Ub-AMC hydrolysis by the addition of RPN13^DEU [1]: 7 fold
- activation of Ub-AMC hydrolysis by the addition of RPN13^DEU [2]: 2.7 fold
Substance: RPN13 DEUBAD domain (aa 265-388) (from UniProt Q16186 265-388) (domain or fragment)

- Kd (Ub-LysGlyTAMRA): 2300 nM
Substance: UCH-L5 (C88A)/RPN13DEU complex (from UniProt Q9Y5K5-3;Q16186)

- Kd [3]: 6 nM
Substance: UCH-L5 (full-length, wild type) (enzyme)
